The target of experiment [1] is MHCII (DR). The experiment is described as follows: competition.
Experiment [2] concerns the target HLA-DRB1*01:01 MHCII molecule (human). The experiment is described as follows: competition ELISA; 50 nM, pp65 reference. (ELISA stands for enzyme-linked immunosorbent assay.)
Experiment [3] has the same target. The experiment is described as follows: competition ELISA; 25 nM huCLIP-bio.
Experiment [4] deals with MHCII (DR). As to the kind of experiment: competition ELISA.
Experiment [5] has as its target HLA-DRB1*01:01 MHCII molecule (human). The experiment is described as follows: competition ELISA; 25 nM, pp65 reference.
For experiment [6] the target is unchanged. As to the kind of experiment: competition ELISA; 50 nM huCLIP-bio.

This is an account of results in patent publication US20240255522A1.

As usually defined, the IC50 is the midpoint of a concentration-inhibition curve. A low value points to higher potency.

For the substance LCMV RNAP, in the experiment with MHCII (DR) [1], the IC50 is 0.287 µM.

mCLIP: the IC50 in experiment [2] turned out to be 0.00783 µM; in experiment [3] it was 0.163 µM; in the experiment with MHCII (DR) [4], 0.268 µM; in experiment [5] it was 0.00347 µM; in experiment [6] it was 0.429 µM.

Consider LASV RNAP, for which, in the experiment with MHCII (DR) [1], the IC50 is 0.517 µM.

Regarding VETF (275-289), in the experiment with MHCII (DR) [4], the IC50 was 0.983 µM.

In turn, LCMV NP (201-215) gave an IC50 with MHCII (DR) [1] of 1.22 µM.

With MOG (35-55), the IC50 with MHCII (DR) [4] turned out to be 2.05 µM.

For the substance VV HP (23-37), the IC50 with MHCII (DR) [4] was 2.02 µM.

Consider OVA (323-339), for which the IC50 with MHCII (DR) [4] is 10.7 µM.
